Literature values, collected in PMC2646799.

Target: histone H3 acetyl-K9 peptide (Homo sapiens) (UniProt P68431)

Kd: 1000 nM
Substance: Polybromo-1 BrD3 (from UniProt Q86U86)
